In general, Kd refers to the constant that tells how readily two partners part at equilibrium. A high value points to lower affinity.

Among the data in article doi:10.1101/2024.08.10.607320 are peak force (maximum unbinding force) and Kd values, retold here.

In test [1] the target is Collagen I (triple helix of two α1 chains and one α2 chain) (UniProt P02454). Put plainly: AFM adhesion force.
Test [2] has the same target. Put plainly: SPR.

Chain of Collagen I (triple helix of two α1 chains and one α2 chain) (P02454 152-1207, chain 1 of 2): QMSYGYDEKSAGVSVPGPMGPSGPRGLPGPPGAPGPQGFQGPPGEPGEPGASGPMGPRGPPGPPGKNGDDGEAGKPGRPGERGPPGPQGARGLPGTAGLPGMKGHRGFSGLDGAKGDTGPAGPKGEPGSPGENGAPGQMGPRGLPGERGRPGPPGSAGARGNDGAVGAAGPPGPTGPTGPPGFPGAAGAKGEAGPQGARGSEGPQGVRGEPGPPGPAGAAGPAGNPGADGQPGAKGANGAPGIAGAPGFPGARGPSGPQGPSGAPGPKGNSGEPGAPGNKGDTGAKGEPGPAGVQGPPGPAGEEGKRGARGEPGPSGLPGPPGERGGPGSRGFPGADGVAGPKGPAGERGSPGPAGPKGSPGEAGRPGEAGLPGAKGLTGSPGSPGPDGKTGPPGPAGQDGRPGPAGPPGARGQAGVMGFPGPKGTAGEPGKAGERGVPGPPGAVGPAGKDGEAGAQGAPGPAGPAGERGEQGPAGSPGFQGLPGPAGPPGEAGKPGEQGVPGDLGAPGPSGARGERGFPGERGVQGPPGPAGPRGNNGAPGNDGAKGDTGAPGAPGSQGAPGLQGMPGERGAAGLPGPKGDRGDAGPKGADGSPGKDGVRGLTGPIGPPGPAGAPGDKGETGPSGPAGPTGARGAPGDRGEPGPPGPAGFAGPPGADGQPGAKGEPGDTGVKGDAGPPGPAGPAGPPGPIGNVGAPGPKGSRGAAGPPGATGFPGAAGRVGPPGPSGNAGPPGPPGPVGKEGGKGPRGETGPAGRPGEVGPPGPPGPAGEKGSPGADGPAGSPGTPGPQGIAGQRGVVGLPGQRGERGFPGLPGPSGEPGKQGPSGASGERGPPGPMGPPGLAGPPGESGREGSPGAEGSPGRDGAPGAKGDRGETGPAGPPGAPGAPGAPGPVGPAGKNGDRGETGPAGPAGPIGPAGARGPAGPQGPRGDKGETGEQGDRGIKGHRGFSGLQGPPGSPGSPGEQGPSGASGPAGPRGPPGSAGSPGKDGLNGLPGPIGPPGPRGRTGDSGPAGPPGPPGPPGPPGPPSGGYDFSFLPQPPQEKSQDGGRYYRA
Chain of Collagen I (triple helix of two α1 chains and one α2 chain) (P02466 86-1125, chain 2 of 2, further chain): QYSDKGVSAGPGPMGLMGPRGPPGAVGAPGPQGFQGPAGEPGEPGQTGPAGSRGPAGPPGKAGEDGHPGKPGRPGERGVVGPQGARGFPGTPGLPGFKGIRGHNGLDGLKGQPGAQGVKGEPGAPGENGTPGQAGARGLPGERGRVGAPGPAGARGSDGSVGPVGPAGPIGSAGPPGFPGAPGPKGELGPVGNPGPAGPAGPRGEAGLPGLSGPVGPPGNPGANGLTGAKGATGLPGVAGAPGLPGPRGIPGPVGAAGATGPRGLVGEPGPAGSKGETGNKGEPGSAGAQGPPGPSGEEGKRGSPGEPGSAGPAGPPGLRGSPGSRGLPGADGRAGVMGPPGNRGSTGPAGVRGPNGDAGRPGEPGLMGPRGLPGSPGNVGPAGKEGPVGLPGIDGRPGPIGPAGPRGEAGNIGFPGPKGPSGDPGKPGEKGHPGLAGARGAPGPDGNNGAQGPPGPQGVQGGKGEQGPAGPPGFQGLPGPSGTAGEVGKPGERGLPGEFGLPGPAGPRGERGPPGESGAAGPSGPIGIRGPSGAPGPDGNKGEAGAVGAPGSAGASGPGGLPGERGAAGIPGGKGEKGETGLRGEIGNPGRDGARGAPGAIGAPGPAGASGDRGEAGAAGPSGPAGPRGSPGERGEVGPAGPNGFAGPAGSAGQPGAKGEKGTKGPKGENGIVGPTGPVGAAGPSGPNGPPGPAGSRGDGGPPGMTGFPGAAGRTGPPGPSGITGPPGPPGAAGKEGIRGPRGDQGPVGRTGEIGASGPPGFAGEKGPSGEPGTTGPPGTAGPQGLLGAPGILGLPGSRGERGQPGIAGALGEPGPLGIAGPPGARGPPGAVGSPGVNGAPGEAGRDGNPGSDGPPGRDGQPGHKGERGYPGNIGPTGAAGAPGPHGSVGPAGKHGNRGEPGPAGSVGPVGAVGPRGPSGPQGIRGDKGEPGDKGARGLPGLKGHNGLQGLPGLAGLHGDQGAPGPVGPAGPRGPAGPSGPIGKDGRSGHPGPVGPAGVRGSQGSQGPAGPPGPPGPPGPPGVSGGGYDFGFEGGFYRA

In test [1], “Amylin1-37 (human islet amyloid polypeptide), recombinant, monomer (from UniProt P10997 34-70)” gave a peak force (maximum unbinding force) of 3.5 nN. In addition, the Kd in test [2] turned out to be 6.27 µM.
